The values below come from patent US20190381086A1, “INHIBITION OF NEDDYLATION USING GLYCYL-tRNA SYNTHETASE INHIBITORS” (The Scripps Research Institute, priority 2015, published 2019).

Experiment [1] addresses Ubc12^N8: NEDD8-conjugated Ubc12 (C111S, stable ester linkage to His-SUMO-tagged NEDD8) (UniProt P61081). The experiment in a line: biolayer interferometry, Ubc12^N8 immobilized.
The target is the same in experiment [2]. Briefly: biolayer interferometry (Octet), 30 °C, Ubc12^N8 (100 nM) immobilized on sensor tips, GlyRS 0.25 µM; in the presence of 0.5 mM of the small molecule GlySA. Background: Biolayer interferometry detects binding as a change in optical thickness at a sensor tip.
For experiment [3] the target is unchanged. Briefly: biolayer interferometry (Octet), 30 °C, Ubc12^N8 (100 nM) immobilized on sensor tips, GlyRS 0.25 µM; curve 'Blank' (no GlySA).
Experiment [4] shares this target. The experiment in a line: biolayer interferometry (Octet), 30 °C, Ubc12^N8 (100 nM) immobilized on sensor tips, GlyRS 0.25 µM; in the presence of 1.0 mM of the small molecule GlySA.
For experiment [5] the target is unchanged. The experiment in a line: biolayer interferometry, Ubc12^N8 immobilized, full-length GlyRS 8.07-129 nM.

By Kd is commonly meant a measure of binding affinity in units of concentration.

B1: ΔInsertion 1 GlyRS (F147-F224 replaced by GSGSGG) (enzyme)
chain: MDGAGAEEVLAPLRLAVRQQGDLVRKLKEDKAPQVDVDKAVAELKARKRVLEAKELALQPKDDIVDRAKMEDTLKRRFFYDQAFAIYGGVSGLYDFGPVGCALKNNIIQTWRQHFIQEEQILEIDCTMLTPEPVLKTSGHVDKFADGSGSGGNLMFKTFIGPGGNMPGYLRPETAQGIFLNFKRLLEFNQGKLPFAAAQIGNSFRNEISPRSGLIRVREFTMAEIEHFVDPSEKDHPKFQNVADLHLYLYSAKAQVSGQSARKMRLGDAVEQGVINNTVLGYFIGRIYLYLTKVGISPDKLRFRQHMENEMAHYACDCWDAESKTSYGWIEIVGCADRSCYDLSCHARATKVPLVAEKPLKEPKTVNVVQFEPSKGAIGKAYKKDAKLVMEYLAICDECYITEMEMLLNEKGEFTIETEGKTFQLTKDMINVKRFQKTLYVEEVVPNVIEPSFGLGRIMYTVFEHTFHVREGDEQRTFFSFPAVVAPFKCSVLPLSQNQEFMPFVKELSEALTRHGVSHKVDDSSGSIGRRYARTDEIGVAFGVTIDFDTVNKTPHTATLRDRDSMRQIRAEISELPSIVQDLANGNITWADVEARYPLFEGQETGKKETIEE
In the case of B1, the equilibrium dissociation constant (Kd) in experiment [1] stood at 4.32 nM.

B2: ΔF84-L93 GlyRS (F84-L93 replaced by GGG) (enzyme)
chain: MDGAGAEEVLAPLRLAVRQQGDLVRKLKEDKAPQVDVDKAVAELKARKRVLEAKELALQPKDDIVDRAKMEDTLKRRFFYDQAGGGYDFGPVGCALKNNIIQTWRQHFIQEEQILEIDCTMLTPEPVLKTSGHVDKFADFMVKDVKNGECFRADHLLKAHLQKLMSDKKCSVEKKSEMESVLAQLDNYGQQELADLFVNYNVKSPITGNDLSPPVSFNLMFKTFIGPGGNMPGYLRPETAQGIFLNFKRLLEFNQGKLPFAAAQIGNSFRNEISPRSGLIRVREFTMAEIEHFVDPSEKDHPKFQNVADLHLYLYSAKAQVSGQSARKMRLGDAVEQGVINNTVLGYFIGRIYLYLTKVGISPDKLRFRQHMENEMAHYACDCWDAESKTSYGWIEIVGCADRSCYDLSCHARATKVPLVAEKPLKEPKTVNVVQFEPSKGAIGKAYKKDAKLVMEYLAICDECYITEMEMLLNEKGEFTIETEGKTFQLTKDMINVKRFQKTLYVEEVVPNVIEPSFGLGRIMYTVFEHTFHVREGDEQRTFFSFPAVVAPFKCSVLPLSQNQEFMPFVKELSEALTRHGVSHKVDDSSGSIGRRYARTDEIGVAFGVTIDFDTVNKTPHTATLRDRDSMRQIRAEISELPSIVQDLANGNITWADVEARYPLFEGQETGKKETIEE
In experiment [1], B2 returned an equilibrium dissociation constant (Kd) of 27 nM and a fold decrease of binding against wild type GlyRS of 9 fold.

B3: full-length human GlyRS (enzyme)
chain: MDGAGAEEVLAPLRLAVRQQGDLVRKLKEDKAPQVDVDKAVAELKARKRVLEAKELALQPKDDIVDRAKMEDTLKRRFFYDQAFAIYGGVSGLYDFGPVGCALKNNIIQTWRQHFIQEEQILEIDCTMLTPEPVLKTSGHVDKFADFMVKDVKNGECFRADHLLKAHLQKLMSDKKCSVEKKSEMESVLAQLDNYGQQELADLFVNYNVKSPITGNDLSPPVSFNLMFKTFIGPGGNMPGYLRPETAQGIFLNFKRLLEFNQGKLPFAAAQIGNSFRNEISPRSGLIRVREFTMAEIEHFVDPSEKDHPKFQNVADLHLYLYSAKAQVSGQSARKMRLGDAVEQGVINNTVLGYFIGRIYLYLTKVGISPDKLRFRQHMENEMAHYACDCWDAESKTSYGWIEIVGCADRSCYDLSCHARATKVPLVAEKPLKEPKTVNVVQFEPSKGAIGKAYKKDAKLVMEYLAICDECYITEMEMLLNEKGEFTIETEGKTFQLTKDMINVKRFQKTLYVEEVVPNVIEPSFGLGRIMYTVFEHTFHVREGDEQRTFFSFPAVVAPFKCSVLPLSQNQEFMPFVKELSEALTRHGVSHKVDDSSGSIGRRYARTDEIGVAFGVTIDFDTVNKTPHTATLRDRDSMRQIRAEISELPSIVQDLANGNITWADVEARYPLFEGQETGKKETIEE
Turning to B3, the dissociation constant Kd in experiment [2] turned out to be 7.88 nM; in experiment [3], 2.12 nM; in experiment [4] it was 22.4 nM; in experiment [5], 3.21 nM.
